# Measured values taken from article PMC5760697, “Loss of the Mitochondrial Fatty Acid β-Oxidation Protein Medium-Chain Acyl-Coenzyme A Dehydrogenase Disrupts Oxidative Phosphorylation Protein Complex Stability and Function” (Scientific Reports, 2018).
# B1: Medium-chain acyl-Coenzyme A dehydrogenase (enzyme, human (endogenous in 143B and HepG2), UniProt P11310 26-421, looked up)
# chain: KANRQREPGLGFSFEFTEQQKEFQATARKFAREEIIPVAAEYDKTGEYPVPLIRRAWELGLMNTHIPENCGGLGLGTFDACLISEELAYGCTGVQTAIEGNSLGQMPIIIAGNDQQKKKYLGRMTEEPLMCAYCVTEPGAGSDVAGIKTKAEKKGDEYIINGQKMWITNGGKANWYFLLARSDPDPKAPANKAFTGFIVEADTPGIQIGRKELNMGQRCSDTRGIVFEDVKVPKENVLIGDGAGFKVAMGAFDKTRPVVAAGAVGLAQRALDEATKYALERKTFGKLLVEHQAISFMLAEMAMKVELARMSYQRAAWEVDSGRRNTYYASIAKAFAGDIANQLATDAVQILGGNGFNTEYPVEKLMRDAKIYQIYEGTSQIQRLIVAREHIDKYKN
# notes: Medium-chain acyl-CoA dehydrogenase (MCAD, EC 1.3.8.7); 421 amino acid precursor, processed in the mitochondrial matrix into a mature 396 amino acid (43.6 kDa) protein; also called MCAD; Medium-chain acyl-CoA dehydrogenase; source: endogenous, mitochondria isolated from 143B cells or HepG2 cells, solubilised in detergent
# B2: Medium-chain acyl-Coenzyme A dehydrogenase (enzyme, UniProt P11310 26-421, looked up)
# chain: B1 chain
# modifications: [35S]-methionine/cysteine
# notes: MCAD cDNA translated as the precursor; after import a proteinase K resistant mature form is seen; 421 amino acid precursor, mature 396 amino acids; Imported into mitochondria that hold endogenous MCAD, so the labelled ~175 kDa tetramer may be mixed with endogenous chains; also called MCAD; radiolabeled MCAD; source: in vitro translated (pGEM4Z, TnT Coupled Reticulocyte Lysate System), imported …
# Tests used:
# [1] = target: OXPHOS complex III dimer (human (endogenous in fibroblasts, 143B and HepG2)) (UniProt P00156); experiment: native gel or EMSA; mtDNA-encoded proteins radiolabeled with [35S]-methionine/cysteine in 143B cells in the presence of cycloheximide, 2 h pulse, chase 0, 3 or 24 h; mitochondria isolated, BN-PAGE or 2D native-PAGE
# [2] = target: OXPHOS complex III dimer (human (endogenous in fibroblasts, 143B and HepG2)) (UniProt P00156); experiment: native gel or EMSA; BN-PAGE and Western blot of isolated mitochondria (fibroblasts, 143B cells) solubilised in 1% (v/v) Triton X-100; anti-UQCRC1 antibody
# [3] = target: the molecule itself; experiment: native gel or EMSA; BN-PAGE and Western blot of isolated mitochondria (fibroblasts, 143B cells) solubilised in 1% (w/v) digitonin; anti-MCAD or anti-NDUFA9 antibody
# [4] = target: the molecule itself; experiment: native gel or EMSA; 35S-labelled in vitro translated protein incubated at 37 °C with freshly isolated 143B mitochondria (5 to 60 min), mitochondria solubilised in 1% (v/v) TX-100 or 1% (w/v) digitonin, BN-PAGE
molecule,measurement,setting,value
OXPHOS complex III dimer (from UniProt P00156 1-380; P31930 35-480; P22695 15-453),stoichiometry N,[1],2
same,stoichiometry N,[2],2
B1,stoichiometry N,[3],4
B2,stoichiometry N,[4],4
